In patent US9434716B2, “Antigen binding proteins” (Glaxo Group Limited, priority 2011, dated 2016):
Positions count from the first letter of the chain named. “Also recorded” adds a separate entry of the source.

Tests used:
[1] = initial clinical studies; cited from earlier work
circulating SAP = molecular target: T1, circulating SAP (Homo sapiens, UniProt P02743); settings: for as long as the drug is administered; cited from earlier work
T1 construct: host or cells: circulating plasma protein in vivo

human SAP [2] = molecular target: T2, human SAP (Homo sapiens, UniProt P02743); assay: Biacore kinetics, human SAP captured on immobilised O-phosphoethanolamine; type: binding; settings: for binding with respect to H3L0: amino acid scan at position 91 of SAP-K L0 light chain
T2 construct: from tissue; host or cells: natural human SAP, purified
Procedure: O-phosphoethanolamine was immobilised on a Biacore CM5 chip by primary amine coupling in accordance with the manufacturer's instructions. Human SAP was then captured on the surface in the presence of calcium chloride, in order to replicate in the Biacore system in vitro, the precise orientation of SAP molecules bound to amyloid fibrils in vivo. Anti SAP antibodies were then passed over this surface at 256, 64, 16, 4, 1 nM and a binding sensorgrams obtained. Analysis was carried out at 25° C. using 4% BSA, 10 mM Tris, 140 mM NaCl, 2 mM CaCl2, 0.05% surfactant P20, 0.02% Na N3, pH 8.0 as running buffer. […] Data generated were double referenced with a buffer injection over the human SAP surface and analyzed using the bivalent analyte model in the Biacore T100 evaluation software.

human SAP [3] = molecular target: T2, human SAP; assay: Biacore off-rate ranking, SAP immobilised on C1 chip; type: binding; settings: culture supernatants, chimera purified at […], single curve, for ranking, 25° C.
Procedure: Human and cynomologus monkey SAP were immobilised on a Biacore C1 chip by primary amine coupling in accordance with the manufacturer's instructions. […] All runs were double referenced with a buffer injection for purified sample or media for the supernatant samples over the human and cyno SAP surfaces. Analysis was carried out at 25° C. using HBS-EP buffer. […] Data were analysed using the 1 to 1 dissociation model within the Biacore T100 evaluation software.
The data generated in Tables 6a and 6b show off-rates (kd) of the humanised SAP-E and SAP-K antibody supernatants respectively. The values were based on a single curve and used for ranking purposes between the different constructs for binding to human SAP. […] The SAP-E humanised L1 light chain was the best light chain variant and combination of the L1 with the H1 heavy chain variant gave a humanised antibody with an acceptable off-rate whilst keeping the number of back mutations to a minimum.

human SAP [4] = molecular target: T2, human SAP; assay: Human SAP binding ELISA, SAP-K and SAP-E hybridoma antibodies; settings: 1 μg/mL lower density coating of human SAP
Procedure: 1 μg/mL or 5 μg/mL human SAP was directly immobilised onto an ELISA plate and blocked with 1% BSA/TBS plus 0.05% TWEEN20. Anti-SAP antibodies from purified material were titrated across the plate. Bound antibody was detected by treatment with a horse-radish peroxidase (HRP)-conjugated rabbit-anti-mouse IgG antibody (Dako, P0260). The ELISA was developed using O-phenylenediamine dihydrochloride (OPD) peroxidase substrate (Sigma, P9187).

human SAP [5] = molecular target: T2, human SAP; assay: Binding of mouse monoclonals to immobilised human SAP in vitro
Text: SAP-E and SAP-K are from two groups of anti-SAP monoclonals, each group having been tested separately for their binding to human SAP in vitro.
SAP-K was selected from among the 6 different, most avidly binding, mouse IgG2a monoclonals, derived by standard techniques from immunization with purified human SAP and a conventional fusion to produce hybridomas which were cloned by routine methods. […] This was the case regardless of whether the human SAP had been directly immobilised on plastic surfaces by non-specific adherence or by covalent attachment, or by the specific calcium dependent binding of SAP to immobilised ligands, whether amyloid fibrils or the small molecule ligand, phosphoethanolamine. SAP-K also bound well to directly immobilised SAP in the presence or absence of calcium, and if the SAP had previously been complexed with CPHPC and then covalently ‘fixed’ in the decameric SAP-CPHPC complex (Pepys, M. B. et al (2002) Targeted pharmacological depletion of serum amyloid P component for treatment of human amyloidosis. Nature, 417: 254-259; Kolstoe, S. E. et al (2009) Molecular dissection of Alzheimer's disease neuropathology by depletion of serum amyloid P component. Proc. Natl. Acad. Sci. USA, 106: 7619-7623). SAP-E also bound well to human SAP in all these different configurations.

native human SAP = molecular target: T3, native human SAP (Homo sapiens, UniProt P02743); assay: Double immunodiffusion in agarose gel; type: binding; settings: isolated pure human SAP and whole human serum
T3 construct: against both isolated pure human SAP and whole human serum; from tissue; host or cells: whole human serum, and isolated pure human SAP

human SAP [6] = molecular target: T2, human SAP; assay: Biacore (BIAcoreX), human SAP covalently immobilised on the chip; type: binding; settings: mean and SD of 3 replicate measurements
human SAP [7] = molecular target: T2, human SAP; assay: Competition ELISA with chimeric anti-SAP mAb; type: binding; settings: human SAP coated at 5 μg/mL; purified murine mAb
Text: A constant concentration of chimeric anti-SAP mAb was mixed with serial diluted (1:1) amounts of mouse anti-SAP mAbs. Plates were washed and the amount of chimeric antibody bound to the immobilised human SAP was detected using goat anti-human Kappa Light chain peroxidase conjugate (Sigma, A7164). The ELISA was developed using O-phenylenediamine dihydrochloride (OPD) peroxidase substrate (Sigma, P9187).

[8] = test system: mice with systemic AA amyloidosis; assay: SAP-K in clearing amyloid deposits, mouse AA amyloidosis model (Example 15); type: in vivo; settings: lower doses of 1 mg, 0.5 mg and 0.1 mg per mouse
Procedure: AA amyloidosis was induced and confirmed in wild-type C57BL/6 mice as detailed in Example 10 above. After loading the amyloid deposits with human SAP also detailed in Example 10, groups of mice were treated with 50 mg per mouse of total IgG as the whole IgG fraction (batch 2866) of the sheep polyclonal anti-human SAP antiserum providing a dose of 7 mg of actual anti-SAP antibody, […], and, as a negative control, isolated purified monoclonal mouse IgG2a antibody specific for an unrelated human antigen and unreactive with either human SAP or any murine antigen. All mice were killed 17 days later for estimation of amyloid load by Congo red staining.

human SAP [9] = molecular target: T2, human SAP; assay: Western blotting and fragment epitope mapping (CNBr, chymotrypsin); type: binding
Text: This is consistent with the kinetic stability and resistance to denaturation of SAP (Manning, M. and Colón, W. (2004) Biochemistry, 43: 11248-11254).
B, SDS-PAGE analysis of SAP cleaved with CNBr. […] These were precisely confirmed by mass spectrometry. […] C, SDS-PAGE analysis of SAP digested with chymotrypsin. Left panel: Coomassie blue stain; lane 1, untreated control SAP; lane 2, SAP after chymotrypsin digestion, showing the expected major fragments corresponding to residues 1-140 and 145-204. These were precisely confirmed by mass spectrometry. Right panel: Western blot with SAP-E showing intense staining of intact untreated SAP in lanes 1 (500 ng loaded) and 2 (100 ng), and also residual intact SAP in lanes 3 and 4 which contained the chymotrypsin digested SAP at different loadings. Very weak binding of SAP-E to the residue 1-140 fragment is seen only in lane 3 which was most heavily loaded. […] D, Sequence comparison between human SAP (h) and mouse SAP (m) for residues 136-147. Top panel, differences indicated above by residues shown in black in the murine sequence. Bottom panel, position of this extended loop with 140Y at its apex shown in white in the 3D subunit structure of human SAP. The different residues in the murine sequence are shown in black. The grey spheres represent the calcium atoms bound in the ligand binding pocket.

[10] = CM5 chip, calcium, bivalent analyte model, 25° C., for comparison only, avidity effect

T2 sequence (P02743 20-223): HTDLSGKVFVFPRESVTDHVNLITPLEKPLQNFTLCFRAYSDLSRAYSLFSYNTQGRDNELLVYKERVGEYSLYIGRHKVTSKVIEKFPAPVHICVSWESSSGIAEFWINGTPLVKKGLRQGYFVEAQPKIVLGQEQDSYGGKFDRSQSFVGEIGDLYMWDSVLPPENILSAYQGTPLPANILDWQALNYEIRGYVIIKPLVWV
T1 sequence (P02743 20-223): as above
T3 sequence (P02743 20-223): as above

Molecule: O=C(O)[C@H]1CCCN1C(=O)CCCCC(=O)N1CCC[C@@H]1C(=O)O [CPHPC, (R)-1-[6-[(R)-2-Carboxy-pyrrolidin-1-yl]-6-oxo-hexanoyl]pyrrolidine-2-carboxylic acid]
- effect on amyloid [1]: did not produce amyloid regression
- depletion of circulating SAP (circulating SAP): depletes almost all circulating SAP

Molecule: glycine
- binding with respect to H3L0 (human SAP [2]): improved binding with respect to H3L0, but to a lesser extent than alanine

Molecule: serine
- binding with respect to H3L0 (human SAP [2]): improved binding with respect to H3L0, but to a lesser extent than alanine

Molecule: valine
- binding with respect to H3L0 (human SAP [2]): improved binding with respect to H3L0, but to a lesser extent than alanine

B1: SAP-K H1L1: humanised SAP-K, VH SEQ ID NO:38, VL SEQ ID NO:42 (antibody, V domains shown)
VH: QVQLVQSGAEVKKPGSSVKVSCKASGYTFTSYWMHWVRQAPGQGLEWMGMIHPNSVNTNYNEKFKSRVTITADKSTSTAYMELSSLRSEDTAVYYCARRNDYYWYFDVWGQGTLVTVSS
VL: DIQMTQSPSSLSASVGDRVTITCKASQNVNSNVAWYQQKPGKAPKALIYSASYRYSGVPSRFSGSGSGTDFTLTISSLQPEDFATYYCQQCNNYPFTFGQGTKLEIK
- kd (human SAP [3]): 0.0296 s⁻¹

B2: SAP-K H2L1: humanised SAP-K, VH SEQ ID NO:39, VL SEQ ID NO:42 (antibody, V domains shown)
VH: B1 VH with M48I, V68A
VL: B1 VL
- kd (human SAP [3]): 0.0321 s⁻¹

B3: SAP-K H0L1: humanised SAP-K, VH SEQ ID NO:37, VL SEQ ID NO:42 (antibody, V domains shown)
VH: B1 VH with Y27G, T30S
VL: B1 VL
- kd (human SAP [3]): 0.0479 s⁻¹

B4: SAP-K: mouse IgG2a monoclonal anti-human SAP antibody, VH SEQ ID NO:17, VL SEQ ID NO:19 (antibody, V domains shown)
VH: QVQLQQPGAELIKPGASVKLSCKASGYTFTSYWMHWVKQRPGQGLEWIGMIHPNSVNTNYNEKFKSKATLTVDKSSSTAYMQLNSLTSEDSAVYYCARRNDYYWYFDVWGTGTTVTVSS
VL: DIVMTQSQKFMSTSVGDRVSVTCKASQNVNSNVAWYQQKPGQSPKALIYSASYRYSGVPDRFTGSGSGTDFTLTITNVQSEDLAEYFCQQCNNYPFTFGSGTKLEIK
- binding to the immobilised human SAP (human SAP [4]): greater binding than the SAP-E
- binding to human SAP in vitro (human SAP [5]; compared within the group of monoclonals): strongest binding to SAP, within their groups; also recorded: greatest binding to immobilised human SAP
- binding to immobilised human SAP (human SAP [5]; human SAP sparsely available, plates coated with 1 μg/ml): much more SAP-K than SAP-E became bound
- binding to native human SAP (immunoprecipitation) (native human SAP): bound apparently equally well to native human SAP
- ka (human SAP [6]): 3.18 ± 5 × 10^4 M^−1 sec^−1
- kd (human SAP [6]): 1.7 ± 0.9 × 10^−5 sec^−1
- competition with SAP-E chimera (human SAP [7]): no competition
- effect on amyloid deposits [8]: no significant effect
- binding to native human SAP in western blotting (human SAP [9]; after agarose gel electrophoresis in physiological buffers): bound
- binding to human SAP in western blotting from reduced SDS-PAGE (human SAP [9]; denatured human SAP): only recognises native human SAP
- ka (human SAP [2]; [10]): 300000 M⁻¹ s⁻¹
- kd (human SAP [2]; [10]): 0.000219 s⁻¹
